# From paper PMC5548745, “Agonist-induced dimer dissociation as a macromolecular step in G protein-coupled receptor signaling” (Nature Communications, 2017)
# B1: WNT-5A: recombinant carrier-free WNT-5A (R&D Systems), agonist for FZDs (protein, UniProt P41221 62-380, looked up)
# Protein Wnt-5a: IIGAQPLCSQLAGLSQGQKKLCHLYQDHMQYIGEGAKTGIKECQYQFRHRRWNCSTVDNTSVFGRVMQIGSRETAFTYAVSAAGVVNAMSRACREGELSTCGCSRAARPKDLPRDWLWGGCGDNIDYGYRFAKEFVDARERERIHAKGSYESARILMNLHNNEAGRRTVYNLADVACKCHGVSGSCSLKTCWLQLADFRKVGDALKEKYDSAAAMRLNSRGKLVQVNSRFNSPTTQDLVYIDPSPDYCVRNESTGSLGTQGRLCNKTSEGMDGCELMCCGRGYDQFKTVQTERCHCKFHWCCYVKCKKCTEIVDQFVCK
# Assays:
# [1] = system: FZD6–FZD6 dimer; experiment: dynamic FCCS of V5-FZD6-mCherry/FZD6-GFP; format: cell-based, human; settings: HEK293
# Description: HEK293 cells were grown over-night in Lab-Tek eight-well chamber-glass bottom slides (Nunc, Thermo Scientific, Langensbold, Germany) coated with matrigel. Data were acquired in 10 s intervals. Collection intervals containing abnormal fluorescence peaks (presumably resulting from aggregates or ROIs where the overall fluorescence was decaying, putatively due to membrane movements) were discarded from the overall analysis. The total included measurements time ranged from 20 to 80 s per cell. Measurements were only undertaken on cells where the fluorescence was well localized to the cell surface membrane, as judged by visual inspection in the wide-field and confocal mode. Autofluorescence, as well as fluorescence from both GFP and mCherry in the intracellular region was negligible. The number of fluorescent receptors assessed in each experiment varied from 10–1000 receptors per µm^2 in each HEK293 cell.
# Dynamic FCCS measurements of WNT-dependent dissociation and re-association of FZD (Fig. 5c–e) were performed on an FCS/FCCS-equipped Zeiss 780 confocal microscope (Zeiss, Jena, Germany). The instrument details were the same as those of the Confocor 3 described above, with the exception that 561 nm excitation was used for excitation of mCherry, that GFP emission was detected from 500 to 550 nm, and that mCherry emission was detected from 600 to 690 nm. Experiments on cells were performed as described above, with each measurement point consisting of 3–6 measurements of 10 s each. […]
# Assuming that M is FZD6-GFP (green) and N is FZD6-mCherry (red) and that all FZD6 form dimers, then the probability of finding a green–red FZD6 dimer is pgr=2×M×N/(M+N)(M+N-1)≈2×M×N/M+N^2=(2cgg+cgr)(2crr+cgr)/2cgg+cgr+crr^2 , where c gg, c gr, and c rr are the corresponding concentrations of the only green FZD6 dimers, the red and green FZD6 dimers and the only red FZD6 dimers. […] From the experiments, we determine the concentrations for c gg, c gr and c rr and compare the concentrations c gr with the c′gr for each cell to get an estimation of how close the model is to experimental data: cgr/c′gr=2cgr×(cgg+cgr+crr)/((2cgg+cgr)(2crr+cgr)) Analysis of the dynamic FCCS measurements of WNT-dependent dissociation and re-association of FZD6: Auto-correlation and cross-correlation curves were analyzed as described above and the amplitudes G g(0)−1, G r(0)−1, and G cc(0)−1 from each of the more than 300 measurements of 10 s duration were estimated by fitting to theoretical models. […]
# With the settings described above for detection of emission, the crosstalk from the GFP channel to the mCherry channel, defined as the intensity detected in the mCherry channel divided by the intensity detected in the GFP channel, I r/I g, for a cell expressing only FZD-GFP, was 0.051 or 5.1 %. […]
# [2] = system: FZD6–FZD6 dimer; experiment: dcFRAP of V5-FZD6-mCherry/FZD6-GFP (FZD6 dimerization); format: cell-based, human; settings: HEK293, after CL
# Summary of the method: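 Live cells co-expressing V5-FZD6-mCherry and FZD6-GFP, surface V5 tag crosslinked with biotin-anti-V5 plus avidin in BE buffer at RT. Membrane areas photobleached, recovery imaged (488/561 nm) over 100 s; mobile fraction from background/bleach-corrected, pre-bleach-normalized intensity at 85-101 s. Cells with <40% crosslink-induced mobility reduction excluded.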
# [3] = representative cell, G cc normalized to green auto-correlation amplitude, WNT-5A
molecule,measurement,setting,value
B1,FZD6–FZD6 interaction upon stimulation (FCCS),[1]; WNT-5A 300 ng ml^−1,a transient decrease in FZD6–FZD6 interaction
same,red molecules also green at maximal dimer dissociation,[1]; [3],6%
same,red molecules also green upon dimer re-association,[1]; [3],21%
same,"mobile fraction of FZD6-GFP after WNT-5A, 5 min","[2]; WNT-5A 300 ng ml^−1, 5 min, 12 ROIs",71.8 ± 3.2%
same,"mobile fraction of FZD6-GFP after WNT-5A, 20 min","[2]; WNT-5A 300 ng ml^−1, 20 min, 15 ROIs",61.0 ± 2.2%
